“Also recorded” adds a separate entry of the source. Square brackets hold non-standard residues; d marks the D form. Ends that are not written are not given here. fluorescein = N-terminal fluorescein label; pS = N[C@@H](COP(=O)(O)O)C(=O)O
How the values were obtained:
[1] = target: 14-3-3γ (UniProt P61981); assay: fluorescence polarization direct binding
[2] = target: T1, human 14-3-3 isoform σ (Homo sapiens, UniProt P31947); assay: Fluorescence polarization (FP) direct binding assay; conditions: fluorescein-labeled peptide 1 nM
T1 construct: MBP (cleaved yes); made in house; host or cells: E. coli BL21DE3
T1 sequence (P31947 1-248): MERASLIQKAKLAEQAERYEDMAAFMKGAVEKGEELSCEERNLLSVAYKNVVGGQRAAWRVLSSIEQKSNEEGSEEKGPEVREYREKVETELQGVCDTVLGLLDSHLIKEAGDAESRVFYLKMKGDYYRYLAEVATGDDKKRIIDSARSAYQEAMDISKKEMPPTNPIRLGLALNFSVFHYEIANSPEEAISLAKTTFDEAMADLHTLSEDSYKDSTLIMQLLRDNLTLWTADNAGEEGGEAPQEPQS
Protocol: (§1) Human MBP-tagged 14-3-3 isoforms were expressed from pMAL2CX plasmids [[Kilisch et al. (2016)], [Yuan et al. (2003)]] in E. coli BL21DE3 cells. After induction with […] isopropyl-β-D-thiogalactoside, the protein was expressed for 4 h at room temperature. Cells were lysed in MBP-lysis buffer [50 mM Tris–HCl pH 7.5, 150 mM NaCl, 5 mM MgCl2, 1 mM PMSF, 1× cOmplete Protease Inhibitor EDTA-free (Roche)] using a French Pressure cell (FRENCH Press, Thermo, United States). Following centrifugation at 42,000 × g and 4°C for 30 min, the supernatant was transferred to a Maltose-agarose column (1.5 ml bed volume; New England Biolabs GmbH, Germany). Captured proteins were washed six times with 10 ml wash buffer (50 mM Tris–HCl pH 7.5, 150 mM NaCl, 5 mM MgCl2) prior to elution using wash buffer including 15 mM D-maltose. To remove the MBP tag, fusion proteins were incubated with Factor Xa (New England Biolabs GmbH, Germany), at a final concentration of 0.4 μg per 1 mg fusion protein for 24 h at RT following another 72 h at 4°C. Anion exchange chromatography was finally applied to separate residual MBP using a buffer gradient from 20 mM Tris pH 8 to 20 mM Tris pH 8 with 1 M NaCl. For this a RESOURCE Q column (GE Healthcare, United Kingdom) was utilized, employing an ÄKTApurifier (GE Healthcare, United Kingdom) or an NGC Quest Chromatography System (Bio-Rad Laboratories GmbH, Germany).
(§2) FP was used to determine binding affinities of different phosphorylated and non-phosphorylated peptides derived from LRRK2 sequences (Peps4LS GmbH, Germany) toward human 14-3-3 isoforms. Direct binding assays were performed and evaluated as previously described ([Muda et al., 2014]; [Manschwetus et al., 2019]). Briefly, both dilution series of 14-3-3 isoforms ranging from final concentrations of at least 5 μM down to picomolar concentrations and dilutions of the respective fluorescein-labeled peptide (final conc. 1 nM) were prepared in FP buffer (20 mM MOPS pH 7, 150 mM NaCl, 0.005% CHAPS). Subsequently, samples were mixed in 384-well microtiter plates as duplicates (BRAND plates, pureGrade, black, BRAND GmbH & Co. KG, Germany) in a 1:1 ratio and measured using a CLARIOstar plate reader (BMG LABTECH, Germany). Two protein preparations were utilized for at least two independent replications for all measurements while high affinity binding peptides were particularly measured with a minimum of three independent replications for statistical evaluation. Data was analyzed with GraphPad Prism 6.0 (GraphPad Software, San Diego, CA, United States) by plotting obtained FP signals (mPol) against the logarithmic 14-3-3 protein concentrations. Data points represent means ± standard error of mean (SEM) of duplicates. “Ctrl.” indicates the FP signal of fluorescein-labeled peptides without 14-3-3 protein. Sigmoidal dose-response fitting was performed to define KD-values.

[3] = target: T2, human 14-3-3γ (Homo sapiens, UniProt P61981); assay: as above; conditions: dilution series of 14-3-3γ (at least 5 μM down to pM), fluorescein-labeled peptide 1 nM
T2 construct: MBP (cleaved yes); made in house; host or cells: E. coli BL21DE3
T2 sequence (P61981 1-247): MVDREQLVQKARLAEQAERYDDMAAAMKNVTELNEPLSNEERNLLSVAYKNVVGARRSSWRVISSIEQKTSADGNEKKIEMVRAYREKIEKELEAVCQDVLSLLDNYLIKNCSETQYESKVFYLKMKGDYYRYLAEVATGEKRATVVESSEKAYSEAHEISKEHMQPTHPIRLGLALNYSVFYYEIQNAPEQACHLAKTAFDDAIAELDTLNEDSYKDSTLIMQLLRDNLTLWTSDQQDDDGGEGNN
Protocol: as §1, §2

[4] = system: all seven human 14-3-3 isoforms; assay: Fluorescence polarization (FP) direct binding assay, statements over all isoforms; conditions: FP direct binding; all seven isoforms; fluorescein-labeled peptide 1 nM; FP buffer pH 7
Protocol: as §1, §2

[5] = target: T3, human 14-3-3 isoform ϵ (Homo sapiens, UniProt P62258); assay: Fluorescence polarization (FP) direct binding assay; conditions: fluorescein-labeled peptide 1 nM
T3 construct: MBP (cleaved yes); made in house; host or cells: E. coli BL21DE3
T3 sequence (P62258 1-255): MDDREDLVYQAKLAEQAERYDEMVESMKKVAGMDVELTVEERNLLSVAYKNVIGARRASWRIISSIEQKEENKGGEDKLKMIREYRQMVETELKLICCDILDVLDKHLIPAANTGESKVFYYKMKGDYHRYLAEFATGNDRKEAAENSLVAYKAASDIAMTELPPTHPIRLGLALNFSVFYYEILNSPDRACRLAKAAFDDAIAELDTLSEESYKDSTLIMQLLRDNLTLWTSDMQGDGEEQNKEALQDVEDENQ
Protocol: as §1, §2

[6] = target: 14-3-3ε (UniProt P62258); assay: fluorescence polarization direct binding; conditions: reference: unphosphorylated S1443/S1444 peptide; sites S1444
[7] = target: pS1444; assay: fluorescence polarisation; direct binding; dilution series of 14-3-3 isoform (at least 5 μM down to picomolar) mixed with 1 nM fluorescein-labelled peptide; 20 mM MOPS pH 7, 150 mM NaCl, 0.005% CHAPS; 384-well plates
[8] = target: T4, R1441C/pS1444 (R1441C (stands in the printed letters)); assay: as above; conditions: both partners purified
T4 construct: LRRK2-derived peptide of the Roc domain with the familial PD mutation R1441C, phosphorylated at S1444; source: synthetic peptide (Peps4LS GmbH)
T4 peptide: fluorescein-LFNIKACAS[pS]SPVILVGT

LRRK2 (leucine-rich repeat kinase 2) (from UniProt Q5S007) pS910 peptide
binding against the reference ([1]; reference: unphosphorylated S910 peptide, sites S910): gained

HIEVRKELAEKMRRpTSVE [pT2524, fluorescein-labeled phosphopeptide of the LRRK2 C-terminus comprising pT2524]
Binding to 14-3-3 isoform σ, in words [2]: worst binding
Binding to 14-3-3γ, in words ([3]; FP buffer pH 7): micromolar affinities
Binding to 14-3-3γ, in words ([3]; FP buffer pH 7, listed as Phosphorylated T2524): clearly binds with micromolar affinity
Binding to the human 14-3-3 isoforms, in words [4]: Micromolar affinities; also recorded: low micromolar range

LFNIKARApSpSSPVILVGT [pS1443/pS1444, fluorescein-labeled LRRK2 Roc domain peptide doubly phosphorylated at S1443 and S1444]
Binding to 14-3-3 isoform ϵ, in words [5]: not fitted due to an unusual binding behavior
Binding to 14-3-3γ, in words ([3]; FP buffer pH 7): reduced binding to 14-3-3γ compared to pS1444
Binding to the human 14-3-3 isoforms, in words [4]: micromolar affinities; also recorded: reduced nanomolar binding affinity to micromolar values

LRRK2 (leucine-rich repeat kinase 2) (from UniProt Q5S007) pS1443/pS1444 peptide
KD ([1]; reference: pS1444 peptide, sites S1443): weaker; reference 106 ± 4
binding against the reference ([1]; reference: unphosphorylated S1443/S1444 peptide, sites S1443,S1444): gained

LRRK2 (leucine-rich repeat kinase 2) (from UniProt Q5S007) pS1444 peptide
KD [6]: gained; reference no binding detected

B1: human 14-3-3 isoform ζ (recombinant, MBP tag removed) (natural protein, UniProt P63104 1-245, looked up)
chain: MDKNELVQKAKLAEQAERYDDMAACMKSVTEQGAELSNEERNLLSVAYKNVVGARRSSWRVVSSIEQKTEGAEKKQQMAREYREKIETELRDICNDVLSLLEKFLIPNASQAESKVFYLKMKGDYYRYLAEVAAGDDKKGIVDQSQQAYQEAFEISKKEMQPTHPIRLGLALNFSVFYYEILNSPEKACSLAKTAFDEAIAELDTLSEESYKDSTLIMQLLRDNLTLWTSDTQGDEAEAGEGGEN
notes: 14-3-3 zeta, human; Expressed from pMAL2CX plasmids; also called 14-3-3ζ; source: E. coli BL21DE3, purified (maltose-agarose, Factor Xa, anion exchange)
Kd [7]: 476 nM
fold decrease in affinity against pS1444 [8]: ≥ 30 fold

B2: human 14-3-3 isoform σ (recombinant, MBP tag removed) (natural protein, UniProt P31947 1-248, looked up)
chain: MERASLIQKAKLAEQAERYEDMAAFMKGAVEKGEELSCEERNLLSVAYKNVVGGQRAAWRVLSSIEQKSNEEGSEEKGPEVREYREKVETELQGVCDTVLGLLDSHLIKEAGDAESRVFYLKMKGDYYRYLAEVATGDDKKRIIDSARSAYQEAMDISKKEMPPTNPIRLGLALNFSVFHYEIANSPEEAISLAKTTFDEAMADLHTLSEDSYKDSTLIMQLLRDNLTLWTADNAGEEGGEAPQEPQS
notes: 14-3-3 sigma, human; Expressed from pMAL2CX plasmids; also called 14-3-3σ; source: E. coli BL21DE3, purified (maltose-agarose, Factor Xa, anion exchange)
Kd [7]: 802 nM
fold decrease in affinity against pS1444 [8]: ≥ 30 fold

B3: human 14-3-3 isoform η (recombinant, MBP tag removed) (natural protein, UniProt Q04917 1-246, looked up)
chain: MGDREQLLQRARLAEQAERYDDMASAMKAVTELNEPLSNEDRNLLSVAYKNVVGARRSSWRVISSIEQKTMADGNEKKLEKVKAYREKIEKELETVCNDVLSLLDKFLIKNCNDFQYESKVFYLKMKGDYYRYLAEVASGEKKNSVVEASEAAYKEAFEISKEQMQPTHPIRLGLALNFSVFYYEIQNAPEQACLLAKQAFDDAIAELDTLNEDSYKDSTLIMQLLRDNLTLWTSDQQDEEAGEGN
notes: 14-3-3 eta, human; Expressed from pMAL2CX plasmids; also called 14-3-3η; source: E. coli BL21DE3, purified (maltose-agarose, Factor Xa, anion exchange)
Kd [7]: 85 nM
fold decrease in affinity against pS1444 [8]: ≥ 30 fold

B4: human 14-3-3 isoform θ (recombinant, MBP tag removed) (natural protein, UniProt P27348 1-245, looked up)
chain: MEKTELIQKAKLAEQAERYDDMATCMKAVTEQGAELSNEERNLLSVAYKNVVGGRRSAWRVISSIEQKTDTSDKKLQLIKDYREKVESELRSICTTVLELLDKYLIANATNPESKVFYLKMKGDYFRYLAEVACGDDRKQTIDNSQGAYQEAFDISKKEMQPTHPIRLGLALNFSVFYYEILNNPELACTLAKTAFDEAIAELDTLNEDSYKDSTLIMQLLRDNLTLWTSDSAGEECDAAEGAEN
notes: 14-3-3 theta, human; Expressed from pMAL2CX plasmids; also called 14-3-3θ; source: E. coli BL21DE3, purified (maltose-agarose, Factor Xa, anion exchange)
Kd [7]: 195 nM
fold decrease in affinity against pS1444 [8]: ≥ 30 fold
